Results from paper doi:10.1101/2021.06.23.449282.

Target: directed activation strategy TMPRSS2 (activated TMPRSS2 ectodomain, residues 109-492, DDDDK255 activation motif) (human) (UniProt O15393)
Experiment: enzyme inhibition assay

With “sunflower trypsin inhibitor-1 (from UniProt Q4GWU5 40-56) (peptide)” the Ki was 400 nM.
